Laboratory results published in the MegaScale stability set (Tsuboyama et al. 2023).

B1: HEEH_KT_rd6_0790 (parent)
chain: SEEEEEEWRRAKERGEEIIILGILWKPNDEEAERRIKEALRRV

Variants of: B1
Test: folding stability dG (cDNA display proteolysis); higher = more stable
Conditions: PBS, room temperature

Folding stability dG [kcal/mol], by site and new letter:
K12: R 2.07 | F 2.13 | L 1.86 | M 2.37 | H 1.96 | T 1.59 | D 1.06 | G 1.07 | Y 2.2 | A 1.59 | I 1.97 | N 1.3 | C 2.01 | W 2.43 | V 1.89 | S 1.44 | E 0.988 | Q 1.9 | P 1.02
W25: K 0.664 | I 1.01 | S 0.662 | G 0.809 | V 0.885 | D 0.518 | R 0.67 | F 1.4 | H 0.716 | L 0.939 | E 0.532 | A 0.981 | M 0.967 | Q 0.568 | C 1.26 | Y 1.25 | T 0.615 | P 0.549 | N 0.423
G15: P 1.03 | E 1.5 | W 1.68 | H 1.53 | T 1.18 | R 1.66 | N 1.9 | S 1.61 | A 1.39 | K 1.6 | D 1.25 | C 2.43 | Q 1.81 | F 1.57 | I 1.34 | Y 1.44 | L 1.6 | M 1.66 | V 1.32
A11: W 2.05 | L 2.14 | E 1.05 | D 0.949 | M 1.94 | G 1.22 | I 2.52 | Q 1.2 | Y 1.95 | N 1.28 | V 1.75 | H 1.6 | T 1.26 | R 1.62 | S 1.65 | P 1.03 | K 1.37 | F 1.89
G22: F 2.59 | I 2.28 | Q 1.15 | H 1.1 | K 0.815 | S 1.19 | N 1.18 | A 1.37 | T 1.4 | P 0.681 | V 2.1 | W 1.93 | M 2.3 | R 0.712 | E 1.12 | L 2.12 | D 1.29 | Y 1.98
R14: D 1.49 | E 1.68 | A 2.04 | I 1.92 | V 1.76 | G 1.42 | T 1.79 | F 1.67 | H 1.67 | Q 1.83 | Y 1.68 | L 2.05 | W 1.58 | S 1.92 | N 1.97 | P 1.09 | M 1.88 | K 2.12
N28: A 1.67
L21: H 1.88 | P 0.723 | S 1.24 | N 1.24 | Q 1.84 | E 1.28 | R 2.07 | T 1.04 | M 2.35 | Y 1.45 | G 1.27 | A 1.84 | W 1.26 | V 1.34 | K 1.66 | I 1.47 | D 1.04 | F 1.97
E16: I 2.21 | H 1.93 | T 1.94 | W 2.03 | K 1.96 | S 1.94 | M 1.93 | Y 1.9 | V 2.15 | D 1.95 | L 2.28 | P 1.15 | F 2.04 | R 1.66 | G 1.61 | A 1.7 | Q 2.05 | N 1.71
I19: P 0.976 | T 2.14 | Q 1.69 | F 2.08 | A 1.33 | G 1.01 | W 2.53 | N 1.55 | V 2.17 | H 1.43 | D 0.997 | E 1.85 | S 1.52 | Y 2.2 | R 1.77 | L 2.12 | K 1.49 | M 2.01
L24: Y 1.72
